Measured values published in PMC3282106.
Values belong to the molecule of their own block, whether it stands above or below them.

Experiments:
Assay in all cases: ITC
[1] = target: T-Mod(Dss1A) (UniProt P31948)
[2] = target: T-Mod(Dss1B) (UniProt P31948)
[3] = target: the T-Mods

Kd [1]: 20.2 µM
stoichiometry N [1]: 0.8
Kd [2]: 18.6 µM
stoichiometry N [2]: 1.1
Molecule: Dss1-C19 peptide (from UniProt P60896 52-70)

Kd [1]: 157 µM
stoichiometry N [1]: 0.8
Kd [2]: 665 µM
Molecule: Dss1-C19 peptide mutant R57A (from UniProt P60896 52-70)

Kd [3]: 175 µM
B1: Sem1 (natural protein)
chain: MSTDVAAAQAQSKIDLTKKKNEEINKKSLEEDDEFEDFPIDTWANGETIKSNAVTQTNIWEENWDDVEVDDDFTNELKAELDRYKRENQ
